In experiment [1] the target is EMTB‐YFP‐CIBN (UniProt Q8GY61).
For experiment [2], the target named is EMTB‐CFP‐FRB.
Experiment [3] addresses EMTB‐YFP‐CIBN (UniProt Q8GY61). This is another data set of the same source.
In experiment [4] the target is EMTB‐CFP‐FRB. This is another data set of the same source.

Regarding ACE2‐mNeon‐FKBP, the internalisation of SARS-CoV2 spike‐Alexa Fluor 647 into ACE2-positive HeLa cells after 2 h, rapamycin 100 nM against DMSO in the experiment with LifeAct‐CFP‐FRB was 89%.

In the experiment with EMTB‐YFP‐CIBN [1], LAMP1‐mCh‐Cry2 gave an immobilisation of LAMP1-labelled lysosomes under blue light (half time on) of 6.2 s and a return of lysosome mobility after the end of blue light (half time off) of 68.8 s.

In turn, LAMP1‐mNeon‐FKBP displayed a motility of LAMP1-labelled lysosomes slowed after rapamycin (half time of the slowing) with EMTB‐CFP‐FRB [2] of 11 s.

Substance TGN38‐mNeon‐FKBP had a motility of post-Golgi vesicles halted after rapamycin 100 nM (half time) with EMTB‐CFP‐FRB [2] of 9 s.

mCh‐Cry2‐VAMP2: in the experiment with EMTB‐YFP‐CIBN [3], the immobilisation of VAMP2-labelled vesicles under blue light (half time on) amounted to 7 s and the return of VAMP2 vesicle mobility after blue light (half time off) was 68.1 s.

In the experiment with CFP‐FRB‐MAP4m, mNeon‐FKBP‐IFT88 registered a movement of IFT88 particles along axonemes in cilia of NIH3T3 cells after rapamycin 100 nM of 20 s.

As for mNeon‐FKBP‐Rab5b, the motility of endosomes halted after rapamycin 100 nM (half time) with EMTB‐CFP‐FRB [2] came to 11.8 s.

Turning to mNeon‐FKBP‐Rab11b, the motility of recycling endosomes halted after rapamycin 100 nM (half time) in the experiment with EMTB‐CFP‐FRB [2] turned out to be 12.5 s.

As to mNeon‐FKBP‐Rab37, the motility of exocytic vesicles halted after rapamycin 100 nM (half time) in the experiment with EMTB‐CFP‐FRB [2] was 12.3 s.

As to mNeon‐FKBP‐VAMP2, in the experiment with EMTB‐CFP‐FRB [4], the immobilisation of VAMP2-labelled vesicles in COS7 cells after rapamycin 100 nM (half time) was determined as 19.2 s and the immobilisation of VAMP2-labelled vesicles in primary culture cortical neurons after rapamycin 100 nM (half time) was 13.6 s.

For the origin of these results see article PMC11615828.
